Reference: patent publication US20180273626A1 (published 2018)

Target: T1, FcεRIα (human, UniProt P12319 26-201)
T1 chain: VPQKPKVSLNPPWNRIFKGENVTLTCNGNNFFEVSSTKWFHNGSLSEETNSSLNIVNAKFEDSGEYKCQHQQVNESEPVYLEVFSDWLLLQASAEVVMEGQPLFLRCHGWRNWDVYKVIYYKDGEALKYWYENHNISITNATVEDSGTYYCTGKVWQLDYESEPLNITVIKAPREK
Test: SPR; mammalian derived

B1: IgE-R419N-Fc3-4 (other)
chain: CADSNPRGVSAYLSRPSPFDLFIRKSPTITCLVVDLAPSKGTVNLTWSRASGKPVNHSTRKEEKQRNGTLTVTSTLPVGTRDWIEGETYQCNVTHPHLPRALMRSTTKTSGPRAAPEVYAFATPEWPGSRDKRTLACLIQNFMPEDISVQWLHNEVQLPDARHSTTQPRKTKGSGFFVFSRLEVTRAEWEQKDEFICRAVHEAASPSQTVQRAVSVNP
modifications: additional N-linked glycan at N419 (Asn-92 of SEQ ID NO: 2)
  Kd: 2.26 nM
